What all share (conditions): remark: other sources report otherwise
Assay [1] concerns the target SARS-CoV-2 delta plus variant RBD (SARS-CoV-2). The assay can be described thus: competition ELISA, biotinylated RBD to immobilized ACE2 ectodomain. (In general: In an ELISA, binding on a coated surface is turned into a signal by an enzyme label.)
Assay [2] has as its target T1, SARS-CoV-2 delta variant B.1.617.2/3 RBD domain (SARS-CoV-2). Described as above.
In assay [3] the target is T2, SARS-CoV-2 omicron variant B.1.1.529 RBD domain (SARS-CoV-2). The assay is described as above.
In assay [4] the target is T3, SARS-CoV-2 kappa variant B.1.617.1/3 RBD domain (SARS-CoV-2). The description is as above.
Assay [5] has as its target SARS-CoV-2 Omicron subvariant BA.2 RBD (SARS-CoV-2). Described as above.
Assay [6] concerns the target SARS-CoV-2 delta plus variant RBD (SARS-CoV-2). The assay can be described thus: ELISA.
The target in assay [7] is T1, SARS-CoV-2 delta variant B.1.617.2/3 …. The assay can be described thus: ELISA.
Assay [8] concerns the target T3, SARS-CoV-2 kappa variant B.1.617.1/3 …. The assay can be described thus: ELISA.
In assay [9] the target is SARS-CoV-2 delta plus variant RBD (SARS-CoV-2). The assay can be described thus: ELISA. The arrangement: unit not given beside the values.
Assay [10] deals with T1, SARS-CoV-2 delta variant B.1.617.2/3 …. The assay can be described thus: ELISA. The arrangement: unit not given beside the values.
For assay [11], the target named is T3, SARS-CoV-2 kappa variant B.1.617.1/3 …. The assay can be described thus: ELISA. Also noted: unit not given beside the values.
Assay [12] deals with SARS-CoV-2 delta plus variant RBD (SARS-CoV-2). The assay can be described thus: RBD/ACE2 blocking ELISA.
Assay [13] concerns the target T1, SARS-CoV-2 delta variant B.1.617.2/3 …. The assay can be described thus: RBD/ACE2 blocking ELISA.
The target in assay [14] is T3, SARS-CoV-2 kappa variant B.1.617.1/3 …. The assay can be described thus: RBD/ACE2 blocking ELISA.
Assay [15] addresses SARS-CoV-2 delta plus variant RBD (SARS-CoV-2). The assay can be described thus: RBD-ACE2 competition ELISA. Also noted: unit not given beside the values.
Assay [16] has as its target T1, SARS-CoV-2 delta variant B.1.617.2/3 …. The assay can be described thus: RBD-ACE2 competition ELISA. Also noted: unit not given beside the values.
The target of assay [17] is T3, SARS-CoV-2 kappa variant B.1.617.1/3 …. The assay can be described thus: RBD-ACE2 competition ELISA. Also noted: unit not given beside the values.
Assay [18] concerns the target T4, SARS-CoV-2 omicron variant B.1.1.529 Spike ectodomain (tri-S, HexaPro) (SARS-CoV-2), P0DTC2. The assay can be described thus: tri-S/ACE2 blocking ELISA [B].
Assay [19] concerns the target SARS-CoV-2 delta plus variant RBD (SARS-CoV-2). The assay can be described thus: ELISA. Also noted: unit not given beside the values. This is another data set of the same source.
The target in assay [20] is T1, SARS-CoV-2 delta variant B.1.617.2/3 …. The assay can be described thus: ELISA. The arrangement: unit not given beside the values. This is another data set of the same source.
In assay [21] the target is T3, SARS-CoV-2 kappa variant B.1.617.1/3 …. The assay can be described thus: ELISA. Also noted: unit not given beside the values. This is another data set of the same source.
Assay [22] deals with T4, SARS-CoV-2 omicron variant B.1.1.529 …. The assay can be described thus: competition ELISA, biotinylated tri-S to immobilized ACE2 ectodomain.
Assay [23] concerns the target T2, SARS-CoV-2 omicron variant B.1.1.529 …. The assay can be described thus: ELISA. The arrangement: unit not given beside the values.
Assay [24] addresses T4, SARS-CoV-2 omicron variant B.1.1.529 …. The assay can be described thus: ELISA. Also noted: unit not given beside the values.
In assay [25] the target is T1, SARS-CoV-2 delta variant B.1.617.2/3 …. The assay can be described thus: RBD-ACE2 competition ELISA [letter not given].

Here are results for two molecules from patent US20240336672A1.

Usually IC50 stands for the concentration that gives 50% inhibition. As a reminder, the IC90 is the concentration needed for an effect of 90%.

B1: Cv2.3194 (recombinant human IgG1) (antibody)
heavy: EVQLVESGGGLIQPGGSLRLSCAASGITVTSNYMSWVRQAPGKGLEWVSVIYPGGSTFYADSVKGRFTISRDNSKNTLYLQMNSLRAEDTAVYYCARDLVVYGMDVWGQGTTVTVSSASTKGPSVFPLAPSSKSTSGGTAALGCLVKDYFPEPVTVSWNSGALTSGVHTFPAVLQSSGLYSLSSVVTVPSSSLGTQTYICNVNHKPSNTKVDKKVEPKSCDKTHTCPPCPAPELLGGPSVFLFPPKPKDTLMISRTPEVTCVVVDVSHEDPEVKFNWYVDGVEVHNAKTKPREEQYNSTYRVVSVLTVLHQDWLNGKEYKCKVSNKALPAPIEKTISKAKQPREPQVYTLPPSRDELTKNQVSLTCLVKGFYPSDIAVEWESNGQPENNYKTTPPVLDSDGSFFLYSKLTVDKSRWQQGNVFSCSVMHEALHNHYTQKSLSLSPGK
light: EIVLTQSPGTLSLSPGERATLSCRASQSVSSSYLAWYQQKPGQAPRLLIYGASSRATGIPGRFSGSGSGTDFTLTISRLEPEDFAIYYCQQGVTFGGGTKVEIKRTVAAPSVFIFPPSDEQLKSGTASVVCLLNNFYPREAKVQWKVDNALQSGNSQESVTEQDSKDSTYSLSSTLTLSKADYEKHKVYACEVTHQGLSSPVTKSFNRGEC
Turning to B1, the IC50 in [1] came out at 0.28 µg/mL; in assay [2], 0.827 µg/mL; in assay [3], 6.53 µg/mL; in assay [4] it was 0.469 µg/mL; in assay [5], 2.71 µg/mL; in [22], 0.876 µg/mL. The IC90 in [1] is 0.967 µg/mL; in assay [2], 1.31 µg/mL; in assay [3], 37.6 µg/mL; in assay [4] it was 1.1 µg/mL; in [5], 29.1 µg/mL; in assay [22] it was 1.2 µg/mL. For the same molecule, the OD405nm in assay [6] came to 3.5; in assay [7], 3.4; in assay [8], 3.6. Besides, the AUC in [9] came to 3; in assay [10], 3; in assay [11], 4; in assay [23], 10; in [24], 12. The figures for the % binding inhibition in assay [12], in assay [13] and in [14] were 94%, 94% and 92%, respectively. Further, the results for the AUC (RBD block.) in assay [15], in assay [16] and in [17] were 141, 102 and 128, respectively. In assay [18], the AUC of blocking stood at 76. Moreover, the AUC (RBD bind.) in assay [19], in [20] and in [21] was 13 in each case.

B2: Cv2.5213 (recombinant human IgG1) (antibody)
heavy: EVQLVESGGGLIQPGGSLRLSCAASGFTVSSNYMSWVRQAPGKGLEWVSLIYSGGSTYYADSVKGRFTISRDNSKNTLYLQMNSLRAEDTAVYYCARDLNYYGMDVWGQGATVTVSSASTKGPSVFPLAPSSKSTSGGTAALGCLVKDYFPEPVTVSWNSGALTSGVHTFPAVLQSSGLYSLSSVVTVPSSSLGTQTYICNVNHKPSNTKVDKKVEPKSCDKTHTCPPCPAPELLGGPSVFLFPPKPKDTLMISRTPEVTCVVVDVSHEDPEVKFNWYVDGVEVHNAKTKPREEQYNSTYRVVSVLTVLHQDWLNGKEYKCKVSNKALPAPIEKTISKAKQPREPQVYTLPPSRDELTKNQVSLTCLVKGFYPSDIAVEWESNGQPENNYKTTPPVLDSDGSFFLYSKLTVDKSRWQQGNVFSCSVMHEALHNHYTQKSLSLSPGK
light: not shown
For the molecule B2, the AUC (RBD block.) is 33 in assay [15], 91 in assay [16] and 150 in assay [17]. In [25], this molecule registered an IC50 (read off the curve) of 1 µg/mL. This molecule showed an AUC of blocking in assay [18] of 10. Also, the AUC (RBD bind.) stood at 12 in [19], 13 in assay [20] and 13 in assay [21]. The AUC in assay [23] stood at 1; in assay [24] it was 2.
